Laboratory results: patent US20240115704A1, “TREATMENT OF CANCER WITH NK CELLS AND A CD38-TARGETED ANTIBODY” (Artiva Biotherapeutics, Inc., priority 2021, published 2024)

Target: CD38 (human) (UniProt P28907)
Assay: cell-based or functional assay

ADCC (percent specific lysis) of MM.1R multiple myeloma cells by AB-101, 0.31:1 E:T, 2 µg/mL daratumumab, 4 h: 4.88% | ADCC (percent specific lysis) of MM.1R multiple myeloma cells by AB-101, 10:1 E:T, 2 µg/mL daratumumab, 4 h: 42.4% | ADCC (percent specific lysis) of MM.1S multiple myeloma cells by AB-101, 0.31:1 E:T, 2 µg/mL daratumumab, 4 h: 2.34% | ADCC (percent specific lysis) of MM.1S multiple myeloma cells by AB-101, 10:1 E:T, 2 µg/mL daratumumab, 4 h: 19.8% | ADCC (percent specific lysis) of NCI-H929 multiple myeloma cells by AB-101, 0.31:1 E:T, 2 µg/mL daratumumab, 4 h: 3.38% | ADCC (percent specific lysis) of NCI-H929 multiple myeloma cells by AB-101, 10:1 E:T, 2 µg/mL daratumumab, 4 h: 46.4% | ADCC (percent specific lysis) of RPMI 8226 multiple myeloma cells by AB-101, 0.31:1 E:T, 2 µg/mL daratumumab, 4 h: 8.75% | ADCC (percent specific lysis) of RPMI 8226 multiple myeloma cells by AB-101, 10:1 E:T, 2 µg/mL daratumumab, 4 h: 58.2% | daratumumab-mediated ADCC (percent specific lysis) of Daudi cells by AB-101, 10:1 E:T, 2 µg/mL daratumumab, 4 h: 79.5%
Substance: daratumumab (antibody)
complement-dependent cytotoxicity of Daudi cells with human complement serum: daratumumab concentration at which lysis was saturated: < 0.41 µg/mL
